Data reported in publication doi:10.1101/2025.03.12.642038, “Structural, biophysical and biological analysis and characterisation of IRF4 DNA-binding domain mutations associated with multiple myeloma”.
Residue numbers refer to the chain shown, from its start.

Tests used:
Experiment in all cases: SPR two-state kinetic; FP: PBS + 0.05% Tween20, 5 nM DNA, 1 h, room temperature; SPR: Biacore S200, SA chip, protein 0.1-4500 nM, running buffer not given in material; errors are SD
IRF4 DBD S114R = target: T1, IRF4 DBD S114R (Homo sapiens, UniProt Q15306 20-132, S114R); settings: protein: recombinant; tags: N-terminal His8-linker-His8-TEV, cleaved; label: 3' biotin; hairpin, TTTT loop
T1 sequence: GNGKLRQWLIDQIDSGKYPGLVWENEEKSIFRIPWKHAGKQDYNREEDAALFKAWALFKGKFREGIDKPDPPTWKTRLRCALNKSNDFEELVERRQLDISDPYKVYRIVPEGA

IRF4 DBD T95A = target: T2, IRF4 DBD T95A (Homo sapiens, UniProt Q15306 20-132, T95A); settings: protein: recombinant; tags: N-terminal His8-linker-His8-TEV, cleaved; label: 3' biotin; hairpin, TTTT loop
T2 sequence: T1 sequence with T76A, R95S

IRF4 DBD C99S = target: T3, IRF4 DBD C99S (Homo sapiens, UniProt Q15306 20-132, C99S); settings: protein: recombinant; label: 3' biotin; hairpin, TTTT loop
T3 sequence: T1 sequence with C80S, R95S

IRF4 DBD T95R = target: T4, IRF4 DBD T95R (Homo sapiens, UniProt Q15306 20-132, T95R); settings: protein: recombinant; tags: N-terminal His8-linker-His8-TEV, cleaved; label: 3' biotin; hairpin, TTTT loop
T4 sequence: T1 sequence with T76R, R95S

IRF4 DBD D117H = target: T5, IRF4 DBD D117H (Homo sapiens, UniProt Q15306 20-132, D117H); settings: protein: recombinant; tags: N-terminal His8-linker-His8-TEV, cleaved; label: 3' biotin; hairpin, TTTT loop
T5 sequence: T1 sequence with R95S, D98H

IRF4 DBD T95K = target: T6, IRF4 DBD T95K (Homo sapiens, UniProt Q15306 20-132, T95K); settings: protein: recombinant; tags: N-terminal His8-linker-His8-TEV, cleaved; label: 3' biotin; hairpin, TTTT loop
T6 sequence: T1 sequence with T76K, R95S

IRF4 DBD K123R = target: T7, IRF4 DBD K123R (Homo sapiens, UniProt Q15306 20-132, K123R); settings: protein: recombinant; tags: N-terminal His8-linker-His8-TEV, cleaved; label: 3' biotin; hairpin, TTTT loop
T7 sequence: T1 sequence with R95S, K104R

IRF4 DBD S114N = target: T8, IRF4 DBD S114N (Homo sapiens, UniProt Q15306 20-132, S114N); settings: protein: recombinant; tags: N-terminal His8-linker-His8-TEV, cleaved; label: 3' biotin; hairpin, TTTT loop
T8 sequence: T1 sequence with R95N

IRF4 DBD L70V = target: T9, IRF4 DBD L70V (Homo sapiens, UniProt Q15306 20-132, L70V); settings: protein: recombinant; tags: N-terminal His8-linker-His8-TEV, cleaved; label: 3' biotin; hairpin, TTTT loop
T9 sequence: T1 sequence with L51V, R95S

IRF4 DBD C99A = target: T10, IRF4 DBD C99A (Homo sapiens, UniProt Q15306 20-132, C99A); settings: protein: recombinant; tags: N-terminal His8-linker-His8-TEV, cleaved; label: 3' biotin; hairpin, TTTT loop
T10 sequence: T1 sequence with C80A, R95S

CTTGGTTTCACTTCCTGCGTTTTCGCAGGAAGTGAAACCAAG (structured_DNA) [IRE hairpin (biotin)] was tested, and the Kd (IRF4 DBD S114R) was 0.049 ± 0.026 µM, the Kd (IRF4 DBD T95A) was 0.305 ± 0.174 µM and the Kd (IRF4 DBD C99S) was 0.139 ± 0.043 µM. For the same binder, the Kd (IRF4 DBD T95R) was 0.481 ± 0.149 µM, the Kd (IRF4 DBD D117H) was 0.204 ± 0.131 µM and the Kd (IRF4 DBD T95K) was 0.913 ± 0.147 µM. The Kd (IRF4 DBD K123R) was 1.11 ± 0.341 µM, the Kd (IRF4 DBD S114N) was 0.145 ± 0.151 µM and the Kd (IRF4 DBD L70V) was 0.121 ± 0.111 µM. It also gave a Kd (IRF4 DBD C99A) of 0.061 ± 0.029 µM.
